Entries after “also recorded” stand apart in the source; their conditions may differ.
Legend:
[1] = Chromogenic reaction of degrading herbicides in bacteria: 2,4-D; assay type: cell-based, Escherichia coli; conditions: recombinant E. coli expressing the gene, 2,4-D added to the medium, red = phenols
Procedure, shortened: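 E. coli BL21(DE3) carrying AAD12 or empty pET15b was induced with 0.1 mM IPTG plus 2 mM α-ketoglutarate and given 0.5 mM 2,4-D, then grown overnight at 28 °C. Supernatant was treated with pH 10 borate, potassium ferricyanide and 4-aminoantipyrine for 5 min at room temperature; red colour read at A510.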

[2] = assay type: cell-based, Escherichia coli
Description: (§1) To transform the plasmids to be tested, an AAD12-expressing plasmid and a blank control plasmid pET15b were respectively transformed into the protein expression E. coli BL21(DE3) strains. A monoclone was selected and inoculated in a 10 ml centrifuge tube with 3 ml LB medium, and cultivated at 37° C., 200 rpm for 6-8 hours. […] The temperature was switched to 28° C. and the cultivation continued overnight. In the next morning, 200 μL of each bacteria solution was taken and centrifuged to precipitate thallus, 180 μL of the supernatant was taken and added in a 96-well plate, and 20 μL of borate buffer of pH 10 was added. Then the mixture was added with 2 μL of 8% potassium ferricyanide and mixed well, followed by adding 2 μL of 2% 4-aminoantipyrine, and placed at room temperature for 5 min to observe the color and detect the A510 value. […]

[3] = Chromogenic reaction of degrading herbicides in bacteria: triclopyr; assay type: cell-based, Escherichia coli; conditions: recombinant E. coli expressing the gene
Description: as §1

[4] = system: Arabidopsis thaliana; experiment: Herbicide resistance of transgenic Arabidopsis thaliana seedlings on plate medium (root growth); assay type: in vivo; conditions: Arabidopsis overexpressing the gene
Description: Expression in Arabidopsis thaliana was regulated by its AtUbi10 Arabidopsis thaliana ubiquitin promoter and the MAS (mannopine synthase) terminator. Hygromycin resistance gene (HygR=hpt) served as the selection marker.
Preparation of Agrobacterium infection solution: An activated Agrobacterium (GV3101) monoclone was picked and inoculated in 30 ml YEP liquid medium [yeast powder 10 g/L, tryptone 10 g/L, NaCl 5 g/L, 25 mg/L Rifampicin and 50 mg/L Kanamycin], shaking-cultured at 200 rmp/min, 28° C. overnight until the OD600 was about 1.0-1.5, then centrifuged at 6000 rmp/min for 10 min to collect the bacteria, and the supernatant was discarded. Arabidopsis thaliana infection solution (sucrose 50 g/L, Silwet L-77 300 μL/L, no need to adjust pH) was used to resuspend the cells to OD600=0.8 for later use.
Genetic transformation of Arabidopsis thaliana by flower dipping: Before transformation of Arabidopsis thaliana plants, attentions were paid to whether the plants were growing well, the inflorescences were abundant, and no stress response occurred. The first transformation was performed when plants were about 20 cm high. Plants could be properly watered if the soil was dry. The grown siliques were cut off with scissors the day before transformation. The inflorescences of the plants to be transformed were soaked in the above-mentioned Agrobacterium solution for 30 seconds to 1 minute, which was stirred gently during the period. And a layer of liquid film should appear on the infiltrated plant. The transformed plants were cultured in a dark environment for 24 hours, and then taken out and grown in a normal light environment. A second transformation could be performed in the same way a week later.
Seeds were treated with disinfectant for 5 min, washed with sterile water for 5 times and then one part was spread on MS transgenic screening medium (containing 30 μg/mL hygromycin, 100 μg/mL carbenicillin) to screen transgenic seedlings, and the other part was spread on MS medicated medium [containing 250 μg/mL Cefotaxime sodium and 0.3 μM 2,4-D] to screen herbicide-resistant seedlings at mean time. The petri dish spread with seeds was placed at 4° C. for vernalization for 3 days, and taken out to a illumination incubator for cultivation (temperature of 22° C., 16 hours of light, 8 hours of darkness, light intensity of 100-150 μmol/m^2/s, humidity of 75%). After one week, it was observed that the roots of the wild-type control seedlings were not elongated and their growth was inhibited, while the transgenic seedlings had normal root growth, showing drug resistance. The transgenic positive seedlings and herbicide-resistant seedlings were photographed and transplanted into small pots filled with soil for cultivation.
The transgenic lines with the nine vectors, pQY2309, pQY2310, pQY2311, pQY2312, pQY2313, pQY2314, pQY2315, pQY2316 and pQY2317, overexpressing AAD gene in the T2 generation were further tested on plate medium for their resistance to 2,4-D, 2,4-DB sodium and MCPA herbicide. Two events were tested for each transformant.

B1: QYD72: AAD-like enzyme, SEQ ID NO. 143 (protein)
chain: MAADAPFVVKPLPASFGAVVTGLALADLDEAAFAALYRTWLDYALLIFPGQHLDRDQQIAFARRFGPLEFDIAPISNVRSDGSVRPDDDADDVVKVLKGNMGWHCDSTYMPVQAKGAVFTAHVVPEDGGETDWADMRAAYDALDPAMRRRIEGLSAYHSLRHSQGKLGHVHKPGSAYSGYGMTVEAPPLRPLVKVHPETSRKTLMVGRHAYGIPGFEDAESERLLDELADFACRPPRTWRHSWTPGDAVIWDNRALMHRACPWDMTRPRVMYHSRLAGDPVAEFAAPA
modifications: Synthetic polypeptide, QYD72, D72
- Chromogenic reaction of degrading herbicides in bacteria: 2,4-D [1]: Yes
- Chromogenic reaction of degrading herbicides in bacteria: 2,4-D ([1]; listed as D72): could degrade 2,4-D; also recorded: capable of degrading 2,4-D
- Chromogenic reaction of degrading herbicides in bacteria: MCPA [2]: Yes
- Chromogenic reaction of degrading herbicides in bacteria: Triclopyr [3]: Yes
- Chromogenic reaction of degrading herbicides in bacteria: Triclopyr ([3]; listed as D72): slight degradation

B2: QYD58: AAD-like enzyme, SEQ ID NO. 115 (protein)
chain: MARTFDIEPLAGTTFGAVVRGMKVAILDDAGWRDLYAAWLKYALLVFPGQHLKRDEQIAFAKRFGALEFEMAALSNVKSDGTLRQEKDNDDMMKILKGNMGWHADSTYMPVQAKGAVFSAEIVPGAGGQTGFADMRAAYDALDAGRKAKVERLAAHHSLHYSQSKLGHQTKKQDGEYSGYGLHDGPVPLRPLVKTHPETGRKSLLIGRHAHNIPGMDKAESERLLQELVDFACQPPRVYHHDWTAGDAVVWDNRCLLHQATPWDMTQPRVMWHSRIAGDPRSEAALGVTAVSAAASG
modifications: Synthetic polypeptide, QYD58, D58
- Chromogenic reaction of degrading herbicides in bacteria: 2,4-D [1]: Yes
- Chromogenic reaction of degrading herbicides in bacteria: 2,4-D ([1]; listed as D58): could degrade 2,4-D; also recorded: capable of degrading 2,4-D
- Chromogenic reaction of degrading herbicides in bacteria: MCPA [2]: Yes
- Chromogenic reaction of degrading herbicides in bacteria: Triclopyr [3]: Yes
- Chromogenic reaction of degrading herbicides in bacteria: Triclopyr ([3]; listed as D58): slight degradation

B3: QYD76: AAD-like enzyme, SEQ ID NO. 151 (protein)
chain: MARMFDIAPLDATFGAVVTGVKVTRIDDATWRDLHAAWLEYALLIFPGQFLSRAEQIAFAKRFGPLEFEMAPISNVKADGTIRIEADNDDVVKVLKGNMGWHADSTYMPVQAKGAVFSAEVVPGEGGRTGWADMRAAYDALDAARRVRVESLTAYHSLYYSQAKLGHQPKRGSDYSGYGFHDGPVPRRPLVKVHPETGRKSLLIGRHAHNIPGMDVAESTQFLESLVDFACQPPRIYHHQWTAGDAVVWDNRCLLHRATPWDMTKPRVMWHSRIAGDPVSEASLG
modifications: Synthetic polypeptide, QYD76, D76
- Chromogenic reaction of degrading herbicides in bacteria: 2,4-D [1]: Yes
- Chromogenic reaction of degrading herbicides in bacteria: 2,4-D ([1]; listed as D76): could degrade 2,4-D; also recorded: capable of degrading 2,4-D
- Chromogenic reaction of degrading herbicides in bacteria: MCPA [2]: Yes
- Chromogenic reaction of degrading herbicides in bacteria: Triclopyr [3]: Yes
- Chromogenic reaction of degrading herbicides in bacteria: Triclopyr ([3]; listed as D76): slight degradation

B4: QYD74: AAD-like enzyme, SEQ ID NO. 147 (protein)
chain: MARAFDIEPLDATFGAIITGVKLAALDDAVWRDLYAAWLEYALLIFPSQNLGRDEQIAFAKRFGALEFELAPISNVNSDGTLITDPDNDILKVLKGNMGWHSDSTYMPIQAKGAVFSARVVPKSGGSTGWADMRAAYDALDDNLKRKVERLAAHHSLRYSQAKLGHFPKKHSAYSGYGFHDGPEPLRPLVKTHPETGRKSLLIGRHAHNIPGMSAEESERFLQELVDFACRPPRVYHHEWTAGDVAVWDNRCLLHQATPWDMSEPRVMWHSRIAGDPTTESALA
modifications: Synthetic polypeptide, QYD74, D74
- Chromogenic reaction of degrading herbicides in bacteria: 2,4-D [1]: Yes
- Chromogenic reaction of degrading herbicides in bacteria: 2,4-D ([1]; listed as D74): could degrade 2,4-D; also recorded: capable of degrading 2,4-D
- Chromogenic reaction of degrading herbicides in bacteria: MCPA [2]: Yes
- Chromogenic reaction of degrading herbicides in bacteria: Triclopyr [3]: Yes
- Chromogenic reaction of degrading herbicides in bacteria: Triclopyr ([3]; listed as D74): slight degradation

B5: QYD34: AAD-like enzyme, SEQ ID NO. 67 (protein)
chain: MSMQVIPLDATFGATVTGLKLSELDEAVFAEIYDHWLRYSLLVFPGQNLDNEQQVTFAKRFGALEIDLVELSNVKDDGSLRTAPDDDRIKILKGNMGWHHDSTYMPVQAKGAVFRADTVPSHGGETGWADMCAAYDALGDAMRNRIEGLSAHHSLTYSQGKAGFKHKDKDSEYNGYGLDQDGAPLRPLVKTHAETGRKTLTIGRHAHAVPGLSQADSEALLTELVDFACQPPRIYHHGWQPGDVVVWDNRCLMHQACPWDMAERRVMFHSRLAGDPEHEFAAPN
modifications: Synthetic polypeptide, QYD34, D34
- Chromogenic reaction of degrading herbicides in bacteria: 2,4-D [1]: Yes
- Chromogenic reaction of degrading herbicides in bacteria: 2,4-D ([1]; listed as D34): red reactions
- Resistance of transgenic Arabidopsis thaliana: 2,4-D [4]: Yes
- Chromogenic reaction of degrading herbicides in bacteria: MCPA [2]: NO

B6: QYD73: AAD-like enzyme, SEQ ID NO. 145 (protein)
chain: MARTFDVQPLDATFGAVISGVKLAALDDETWRELYATWLQYALLVFPGQHLSRDQQIAFARRFGPLEFEIIALSNVKSDGTIRSEVENDDVIKVLKGNMGWHADSTYMPVQAKGAVFTAEVVPSVGGQTGWADMRAAYDALDGATRQKVEQLSAYHSLHYSQSKLGHQHKPGSAYSGYGFHDGPVPLRPLVKTHPETGRKSLLIGRHAHNIPGMDKDESARFLEDLVASACQPPRIYHHTWAAGDAVVWDNRCLLHQATPWDMTQPRVMWHSRIAGDPLSEAALG
modifications: Synthetic polypeptide, QYD73, D73
- Chromogenic reaction of degrading herbicides in bacteria: 2,4-D [1]: Yes
- Chromogenic reaction of degrading herbicides in bacteria: 2,4-D ([1]; listed as D73): could degrade 2,4-D; also recorded: capable of degrading 2,4-D
- Chromogenic reaction of degrading herbicides in bacteria: MCPA [2]: Yes
- Chromogenic reaction of degrading herbicides in bacteria: Triclopyr [3]: Yes
- Chromogenic reaction of degrading herbicides in bacteria: Triclopyr ([3]; listed as D73): slight degradation

B7: QYD50: AAD-like enzyme, SEQ ID NO. 99 (protein)
chain: MEEPDMARTLGIEPLAGTTFGAVVKGVKVTALDDATWRELHAAWLQYALLIFPDQHLKRAEQIAFARRFGPLEFEMAAISNVKADGSLRIEADNDDVMKILKGNMGWHCDSTYMPVQAKGAVFSAEVVPSIGGRTGFADMRAAWDALDDALKARIETLSAYHSLHHSQSKLGHQTNKRDGEYSGYGLHDGPVPLRQLVKVHPETGRKSLLIGRHAHNIPGMDKADSERLLQELVDFACQPPRIYHHDWAAGDAVVWDNRCLLHQATPWDMTQPRVMWHSRIAGDPRSEAALGGSAVSAAASG
modifications: Synthetic polypeptide, QYD50, D50
- Chromogenic reaction of degrading herbicides in bacteria: 2,4-D [1]: Yes
- Chromogenic reaction of degrading herbicides in bacteria: 2,4-D ([1]; listed as D50): could degrade 2,4-D; also recorded: capable of degrading 2,4-D
- Resistance of transgenic Arabidopsis thaliana: 2,4-D [4]: Yes
- Resistance of transgenic Arabidopsis thaliana: MCPA [4]: Yes
- Chromogenic reaction of degrading herbicides in bacteria: MCPA [2]: Yes

— patent US20240043859A1, “HERBICIDE-RESISTANT PROTEIN, AND GENE AND USE THEREOF” (QINGDAO KINGAGROOT CHEMICAL COMPOUND CO., LTD., priority 2020, published 2024)
